{"source": "the supplement of paper PMC9170038"}
{"tested_on": "MS2 coat protein", "assay": "apparent KD of MS2 coat protein; higher = weaker reporter binding", "conditions": "Eterna round: R107; input ligand: none", "procedure,_shortened": "(§1)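 Apparent KD stands for the median, per design, of fits to normalised cluster binding curves. The curves came from titrating on-chip-transcribed RNA switches on Illumina sequencing clusters with SNAP-549-labelled MS2 coat protein, twofold from 0.7 or 1.5 nM to 3 µM. Buffer was 100 mM Tris-HCl pH 7.5, 80 mM KCl, 4 mM MgCl2, without or with constant ligand.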", "units": {"apparent KD of MS2 coat protein": "nM"}}
{"sequence": "UGACAUUGCUCAGAUACCAGACAUGAGCAUCAGCCAUGUGCCAACAAGUACAAAAUAAAAGUCCCUUGGCAGCUGAGCAAUGUCU [TheoBX 21 #MS2Left #AlternativeMS2 #Theo2]", "apparent KD of MS2 coat protein": 9.88}
{"sequence": "UGUAUGGACUGAAGGAGCGGGUUGAUAACCUGAGGAUCACCCAGGUAAAAGGCGAAAGCCACCCAGGUAGGUCGCAGUCCAUACU", "apparent KD of MS2 coat protein": 18.1}
{"sequence": "UAAAGUAGGUCCAAUAAAACUACAUGUGAAGGAGCGCGCGAAAGCGCAGGUAGGUCGCACAUGAGGAUCACCCAUGUCCUACAAU [MAT - Exclusion Arginine A - Mod of Eli - D17]", "apparent KD of MS2 coat protein": 51.5}
{"sequence": "GGACUAACCUGAAGGAGCGACACGCACAAAGUGCAAAUUCCUCCACACGAGGAUCACCCGUGUCAGGUAGGUCGCAGGUUAGUCG [ArgBX 28]", "apparent KD of MS2 coat protein": 23}
{"sequence": "GGAGUCGGCACGGCCGCCACUGCGGUGGUGUGACAUGAGGAUCACCCAUGUUGUCAUGCGGCCCUUAGGACCGGGUGGCGGUUCC [#1 Exclusion - Tryptophan B Attempt #22 (HarryS)]", "apparent KD of MS2 coat protein": 58.7}
{"sequence": "ACAUGAGGAUCACCCAUGUAUGAUGUUCCUCGAGGACCGGUACGGCCGCCACUCGAACGAGUGGCGCGCGAGCGCGCGCUCGCGC [aVa]", "apparent KD of MS2 coat protein": 15.6}
{"sequence": "AGCGACAUGCGUGAUACCAGCUACAUGAGGAUCACCCAUGUCAGUAGGAAACUACUGUGUAGCCCUUGGCAGCACAGUGCAUGUC [Exclusion - Theophylline B (Freestyle 26)]", "apparent KD of MS2 coat protein": 16.4}
{"sequence": "UUUUCAGGGUCGGCCGCCACUGGUAUGGCGAGUCCUCGAACAAACAUGAGGAUCACCCAUGUGAACAGGACCGGGACAGCAUGGG [Exclusion Tryptophan B GF 21]", "apparent KD of MS2 coat protein": 380}
{"sequence": "GAUAUAUAACGAAGGAGCGGCCCUUGAUCCUCAUGAGACAUGAGGAUCACCCAUGUCUCGGGCCAGGUAGGUCGCGUUAUAUAUC [Astros-omei-mod]", "apparent KD of MS2 coat protein": 21.5}
{"sequence": "ACACGGGCAUGAGGAUCACCCAUGUAAUAACGAGGACCGGUACGGCCGCCACUCGUGCACCGUGACCUGUACGAAAAGUGCAGGA", "apparent KD of MS2 coat protein": 20.8}
{"sequence": "UGCUACAUGAGGAUCACCCAUGUGGGUGAUACCAGCAUUCGUUAAUGCCCUUGGCAGCGCAGCCGAACCAUUCAUUCGGCAGAUC [Laxeor]", "apparent KD of MS2 coat protein": 125}
{"sequence": "AGCCUCAUACAUGAGGAACACCCAUGUGAUACCAGUCAGGAAACUGACCCUUGGCAGCGCAUGAGGAUCACCCAUGCGCGAGGCA [Omei Theo A Exc A v3]", "apparent KD of MS2 coat protein": 63}
{"sequence": "UGACAUUGCUCAGAUACCAGACGUGAGGAUCACCCACGUGCCAACAAGUACAAAAUAAAUGUCCCUUGGCAGCUGAGCAAUGUCU [TheoBX 26 #MS2Left #AlternativeMS2 #Theo22]", "apparent KD of MS2 coat protein": 9.95}
{"sequence": "UGAUGGAACGGAAGGAGCGUGUAAGAACAAGAACAUGAGGAUCACCCAUGUAUUAAUUUAACACAGGUAGGUCGCCGAGAUAUUG [11.E]", "apparent KD of MS2 coat protein": 14.5}
{"sequence": "UCGGGCAGAGCGGCCGCCACUGUAAGGCGUGCGGAUGACGGAACAUGAGGAUCACCCAUGUUGUUUAGGACCGGGCUUGCGGCGA [nynullin]", "apparent KD of MS2 coat protein": 15.8}
{"sequence": "AUAACAUGAGGAUCACCCAUGUAAGCUGAAGGAGCGCUGGAAACAGCAGGUAGGUCGCAGCAUGUUUCCACAUGGGUAGGAAACU [(M1)-(M2)-(Arg1)-(Arg2)-(A)'-(M)'-(A)''_Design8]", "apparent KD of MS2 coat protein": 80}
{"sequence": "CCUGCGUUUCUUCUUUCGCAGGAGGAUGAUACCAGUAGGGAAACCUACCCUUGGCAGCAUGGGACAUGAGGAUCACCCAUGUGGA [SSThA NP+V+V2 #1]", "apparent KD of MS2 coat protein": 503}
{"sequence": "CGGCCCUCACACGAGGAUCACCCGUGUGAUACCAGCCUGGAAACAGGCCCUUGGCAGCACAAGGUCAUCAAAGAUGACCAAGCCG [TheoAX 22 #SwitchBubble]", "apparent KD of MS2 coat protein": 11.9}
{"sequence": "CGCAACCCACAUGAGGAUCACCCAUGUGAAGGAGCGGCGAAUAAGCCAGGUAGGUCGCGCAUGAAUAAAUCAUGUAGGAAGCGAA [XArg-A 7 V1&2]", "apparent KD of MS2 coat protein": 20.1}
{"sequence": "GGCUCCAGCCGAAGGAGCGCUAGAAGGUGACAUGAGGAUCACCCAUGUGUGUGAUGUGGCUAGCAGGUAGGUCGCGGAGGAGCUU [Exclusion - Arginine B (Freestyle 19)]", "apparent KD of MS2 coat protein": 64.5}
{"sequence": "CAAGAACAGCCAGAUCUUGGCAGCUGAGAAGGAGCGCGGGAAGCCGCAGGUAGGUCGCUCAGGAAUACAUGAGGAUCACCCAUGU [Beoror]", "apparent KD of MS2 coat protein": 17.6}
{"tested_on": "MS2 coat protein", "assay": "apparent KD of MS2 coat protein; higher = weaker reporter binding", "conditions": "Eterna round: R107; input ligand: theophylline 20 uM", "procedure,_shortened": "as §1", "units": {"apparent KD of MS2 coat protein": "nM"}}
{"sequence": "UGACAUUGCUCAGAUACCAGACAUGAGCAUCAGCCAUGUGCCAACAAGUACAAAAUAAAAGUCCCUUGGCAGCUGAGCAAUGUCU [TheoBX 21 #MS2Left #AlternativeMS2 #Theo2]", "apparent KD of MS2 coat protein": 11.3}
{"sequence": "AAUUCCGGGUCGGCCGCCACUGAUAUGGCGAGUCCUCGAACUUACAUGAGGAUCACCCAUGUAAACAGGACCGGGACCGCAUGGG [Exclusion Tryptophan B GF 23]", "apparent KD of MS2 coat protein": 28.4}
{"sequence": "UUAUUUAUAAUUGAUACCAGUUUAAUGGCCGCAAAUCCUGACAUGAGGAUCACCCAUGUAAGCCCUUGGCAGCGGUUAUGGGUUU [XTheo B #25]", "apparent KD of MS2 coat protein": 26.4}
{"sequence": "AUUAAAAGUUGUGAUACCAGACGAACAUGAGGAUCACCCAUGUAACUUUUAGGUGUUGUAGUCCCUUGGCAGCACUAUGUAGUUA [JR_SSTheophyB_Sub012]", "apparent KD of MS2 coat protein": 49.2}
{"sequence": "GGAAUUAAGACUGAUACCAGUCAAGAUAAUCAUAAGAAUAAACAUGAGGAUCACCCAUGUGACCCUUGGCAGCAGACUAAUACCG [Same State Theophylline B GF 26]", "apparent KD of MS2 coat protein": 51.1}
{"sequence": "UCGUUUUAGUCGGCCGCCACUGUAUGCAUGUUUAACAUGAGGAUCACCCAUGUCCCGUUCUAUUUCAGGACCGGGACGUAAUCGA [JR_SSTryptoB_Sub008]", "apparent KD of MS2 coat protein": 382}
{"sequence": "ACAUGAGGAUCACCCAUGUACAUCACCCGACGAGGACCGGUACGGCCGCCACUCGGGUAUAUAUAUACAUCGGGUGAUUUUACGU [#22 Tryptophan A Same State]", "apparent KD of MS2 coat protein": 57.4}
{"sequence": "UGUAUGGACUGAAGGAGCGGGUUGAUAACCUGAGGAUCACCCAGGUAAAAGGCGAAAGCCACCCAGGUAGGUCGCAGUCCAUACU", "apparent KD of MS2 coat protein": 21.6}
{"sequence": "UCGCCAUUGACGGCCGCCACUCAAUGGUCUUCUCUGAACAUAAUUAACAUGAGGAUCACCCAUGUGAGGACCGGGUCGGUUAGAC [theeternabot_exclusion_MS2_Trp_B_24]", "apparent KD of MS2 coat protein": 23.5}
{"sequence": "UAAAGUAGGUCCAAUAAAACUACAUGUGAAGGAGCGCGCGAAAGCGCAGGUAGGUCGCACAUGAGGAUCACCCAUGUCCUACAAU [MAT - Exclusion Arginine A - Mod of Eli - D17]", "apparent KD of MS2 coat protein": 69.1}
{"sequence": "GGACUAACCUGAAGGAGCGACACGCACAAAGUGCAAAUUCCUCCACACGAGGAUCACCCGUGUCAGGUAGGUCGCAGGUUAGUCG [ArgBX 28]", "apparent KD of MS2 coat protein": 30.8}
{"sequence": "GGAGUCGGCACGGCCGCCACUGCGGUGGUGUGACAUGAGGAUCACCCAUGUUGUCAUGCGGCCCUUAGGACCGGGUGGCGGUUCC [#1 Exclusion - Tryptophan B Attempt #22 (HarryS)]", "apparent KD of MS2 coat protein": 76.1}
{"sequence": "AAAAUAAAUAAAACACGUAACAUGAAGGAUACCAGCCAGAAAACUGGCCCUUGGCAGCCUCUACAUGAGGAUCACCCAUGUCGUG [Mat - Same State Theophlline A - Mod of Eli - D16]", "apparent KD of MS2 coat protein": 114}
{"sequence": "CUCGAGUUAUGAGAUACCAGACUAUAGUUUACAUGAGGAUCACCCAUGUUAUGGGUGGUGGUCCCUUGGCAGCUCAUAUGUUUAA [#08 Exclusion-TheophyllineB]", "apparent KD of MS2 coat protein": 220}
{"sequence": "ACAUGAGGAUCACCCAUGUAUGAUGUUCCUCGAGGACCGGUACGGCCGCCACUCGAACGAGUGGCGCGCGAGCGCGCGCUCGCGC [aVa]", "apparent KD of MS2 coat protein": 27.2}
{"sequence": "UUAAAGGCACCUCAUGGGACUAUAAACCCGCGAGGACCGGUACGGCCGCCACUCGAAUAUCAACAUGAGGAUCACCCAUGUGGUU [theeternabot_exclusion_MS2_Trp_A_6]", "apparent KD of MS2 coat protein": 32.3}
{"sequence": "AAUUAUCAGUCGGCCGCCACUGACACAUGAGGAUCACCCAUGUAACUUGGGAUAAAUUUAAUAAACAGGACCGGGACAAAGGCUA [JR_ExcTryptoB_Sub011]", "apparent KD of MS2 coat protein": 50.7}
{"sequence": "AACAUGAGGAUCACCCAUGUGUCCUCGAAACGAGGACCGGUACGGCCGCCACUCGAAUAAGCUGUUGACGAAAAGUCAGCAGCAA [Mat - Exclusion - Trytophan A - D19]", "apparent KD of MS2 coat protein": 327}
